Data from patent publication US5747447A, “Stable polypeptide composition” (COR Therapeutics, priority 1995, dated 1998).

Key:
M21 melanoma cells = experiment: M21 melanoma cell adhesion to vitronectin-coated plates; assay type: cell-based
Experimental: M21 melanoma cells were labelled with ^35 S-methionine, and then added to vitronectin-coated plates in the presence of the indicated concentrations of purified snake venom peptides. Cell attachment was measured by solubilizing the cells remaining after an incubation and wash, as previously describe.

[1] = biological target: ADP-induced human platelet aggregation (Homo sapiens, UniProt P05106+P08514); experiment: standard aggregation inhibition assay (ADP-induced human platelet aggregation); assay type: cell-based
Source text: 2. Standard assays directly applied to platelet aggregation, such as those described by Gann, Z.-R., et al., J Biol Chem (1988) 263:19827-19832; Huang, T. F., et al., J Biol Chem (1987) 262:16157-16163; Biochemistry (1989) 28:661-666, cited above and incorporated herein by reference;

vitronectin receptor = vitronectin receptor (Homo sapiens, UniProt P05106+P06756); experiment: plate assay, inhibition of vitronectin binding to vitronectin receptor
Sequence of vitronectin receptor (P06756 31-889 limits assumed): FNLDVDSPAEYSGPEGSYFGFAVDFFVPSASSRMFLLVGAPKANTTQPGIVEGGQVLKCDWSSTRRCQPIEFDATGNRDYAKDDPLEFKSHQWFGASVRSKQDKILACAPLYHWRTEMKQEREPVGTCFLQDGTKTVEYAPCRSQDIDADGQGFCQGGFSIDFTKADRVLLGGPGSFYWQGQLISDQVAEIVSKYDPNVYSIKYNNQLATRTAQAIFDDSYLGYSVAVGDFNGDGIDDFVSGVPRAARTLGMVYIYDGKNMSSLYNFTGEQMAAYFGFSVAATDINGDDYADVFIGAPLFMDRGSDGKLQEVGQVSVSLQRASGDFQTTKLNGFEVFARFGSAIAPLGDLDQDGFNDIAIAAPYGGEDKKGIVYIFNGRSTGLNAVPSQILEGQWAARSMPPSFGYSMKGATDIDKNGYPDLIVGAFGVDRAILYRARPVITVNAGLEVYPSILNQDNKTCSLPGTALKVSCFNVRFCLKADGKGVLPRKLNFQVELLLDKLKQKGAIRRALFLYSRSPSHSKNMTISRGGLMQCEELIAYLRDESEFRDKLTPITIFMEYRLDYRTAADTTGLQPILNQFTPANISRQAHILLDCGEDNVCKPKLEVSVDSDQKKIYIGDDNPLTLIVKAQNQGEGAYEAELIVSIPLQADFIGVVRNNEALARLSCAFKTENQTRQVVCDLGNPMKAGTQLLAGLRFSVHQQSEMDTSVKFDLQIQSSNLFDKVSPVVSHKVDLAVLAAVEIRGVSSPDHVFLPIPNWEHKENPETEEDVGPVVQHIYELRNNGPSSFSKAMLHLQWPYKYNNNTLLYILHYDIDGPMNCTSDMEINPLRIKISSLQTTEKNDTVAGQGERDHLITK
Sequence of vitronectin receptor (P06756 891-1048 limits assumed): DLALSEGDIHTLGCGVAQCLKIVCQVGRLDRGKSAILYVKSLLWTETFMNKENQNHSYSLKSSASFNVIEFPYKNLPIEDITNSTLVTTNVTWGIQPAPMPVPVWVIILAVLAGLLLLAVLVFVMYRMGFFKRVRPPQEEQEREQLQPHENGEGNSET
Sequence of vitronectin receptor (P05106 27-788): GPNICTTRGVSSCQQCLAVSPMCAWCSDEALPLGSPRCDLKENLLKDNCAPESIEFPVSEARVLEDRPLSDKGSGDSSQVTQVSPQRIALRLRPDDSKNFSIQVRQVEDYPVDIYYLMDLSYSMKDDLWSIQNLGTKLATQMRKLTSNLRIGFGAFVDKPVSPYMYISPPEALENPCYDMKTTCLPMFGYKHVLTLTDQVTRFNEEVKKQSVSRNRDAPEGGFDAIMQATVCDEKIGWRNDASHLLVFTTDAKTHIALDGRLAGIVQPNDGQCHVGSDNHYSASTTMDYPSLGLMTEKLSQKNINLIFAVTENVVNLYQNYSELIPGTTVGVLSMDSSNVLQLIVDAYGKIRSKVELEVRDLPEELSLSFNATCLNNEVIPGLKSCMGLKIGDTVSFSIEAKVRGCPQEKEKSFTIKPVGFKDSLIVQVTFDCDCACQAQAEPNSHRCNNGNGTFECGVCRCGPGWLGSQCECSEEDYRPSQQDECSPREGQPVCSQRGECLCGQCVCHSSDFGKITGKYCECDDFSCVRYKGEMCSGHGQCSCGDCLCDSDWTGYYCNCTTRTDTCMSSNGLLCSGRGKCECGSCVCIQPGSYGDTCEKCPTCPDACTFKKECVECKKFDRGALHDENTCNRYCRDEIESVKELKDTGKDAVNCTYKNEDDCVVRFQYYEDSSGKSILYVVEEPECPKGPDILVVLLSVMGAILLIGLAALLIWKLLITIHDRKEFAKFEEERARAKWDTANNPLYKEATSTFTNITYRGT
Source text: The PAI assay systems further include characterization of the PAI specificity by binding inhibition assays identical to that above but substituting other adhesive proteins for Fg and other receptors for GP IIb-IIIa. In particular, inhibition of the binding of vitronectin to the vitronectin receptor; fibronectin to the fibronectin receptor; fibronectin to GP IIb-IIIa and fibrinogen and/or vWF to GP IIb-IIIa can be assessed. The adhesive protein and receptors for these assays are available in the art.

| Molecule | M21 cell attachment to vitronectin (in words) (M21 melanoma cells) | platelet aggregation inhibition activity (in words) [1] | inhibition of vitronectin binding to the vitronectin receptor (in words) (vitronectin receptor) |
| --- | --- | --- | --- |
| barbourin (protein) peptide: EAGEECDCGSPENPCCDAATCKLRPGAQCADGLCCDQCRFMKKGTVCRVAKGDWNDDTCTGQSADCPRNGLYG | Neither barbourin nor Peptide 1 (truncated barbourin) had a significant effect | potent inhibitors of platelet aggregation |  |
| cotiarin (protein) peptide: EAGEECDCGAPENPCCDAATCKLRPGAQCAEGLCCDQCRFKGAGKICRRARGDNPDDRCTGQSADCPRNRFH | very potent in inhibiting cell attachment to vitronectin |  | potent inhibitor |
